System: AluI restriction endonuclease
Test: cleavage_in_vitro
[1] = 8 mM MgCl2, 2 mM CaCl2, 10 mM Tris pH 7.5

## ATATAGCTATAT (double strand) [(AT)2 12-mer]
Fastest substrate, 8 mM MgCl2, 2 mM CaCl2, 10 mM Tris pH 7.5, 16% glycerol
  relative cleavage rate constant (fold kcomp vs (AA)2): 3.02

## ATATATAGCTATATAT (double strand) [(AT)3 16-mer]
[1]
  binding signal (fold kcomp vs (AA)3): 2.95

## ATATATATAGCTATATATAT (double strand) [(AT)4 20-mer]
[1]
  binding signal (fold kcomp vs (AA)4): 3

Reference: US5593834
